Results on seven molecules are retold here after patent US20260265379A1.

The labels stand for the following.
B1: bsAb035 (bispecific antibody, not shown: small tags and cut ends)
heavy (part 1 of 2): QVQLVQSGAEVKKPGASVKLSCKASGYIFTRYYMYWVKQRPGQGLEWIGEINPNNGGTKFNEKFKNRATLTVDKSISTAYMELSRLRSDDTAVYYCSREDDYDGTPFAMDYWGQGTLVTVSS
heavy (part 2 of 2): GGGGSGGGGSGGGGSGGGGSEVQLVESGGGLVQPGGSLRLSCAASGFTFSRYWMSWVRQAPGKGLEWVANIKQDGSEKYYVDSVKGRFTISRDNAKNSLYLQMNSLRAEDTAVYYCAREGGWFGELAFDYWGQGTLVTVSSGGGGSGGGGSGGGGSGGGGSEIVLTQSPGTLSLSPGERATLSCRASQRVSSSYLAWYQQKPGQAPRLLIYDASSRATGIPDRFSGSGSGTDFTLTISRLEPEDFAVYYCQQYGSLPWTFGQGTKVEIK
heavy: B1 heavy (part 1 of 2)
light: not shown
B2: bsAb050 (bispecific antibody, not shown: small tags and cut ends)
heavy 1: EVQLVESGGGLVQPGGSLRLSCAASGFTFSRYWMSWVRQAPGKGLEWVANIKQDGSEKYYVDSVKGRFTISRDNAKNSLYLQMNSLRAEDTAVYYCAREGGWFGELAFDYWGQGTLVTVSSGGGGSGGGGSGGGGSGGGGSEIVLTQSPGTLSLSPGERATLSCRASQRVSSSYLAWYQQKPGQAPRLLIYDASSRATGIPDRFSGSGSGTDFTLTISRLEPEDFAVYYCQQYGSLPWTFGQGTKVEIKGGGGSGGGGSGGGGSGGGGSQVQLVQSGAEVKKPGASVKLSCKASGYIFTRYYMYWVKQRPGQGLEWIGEINPNNGGTKFNEKFKNRATLTVDKSISTAYMELSRLRSDDTAVYYCSREDDYDGTPFAMDYWGQGTLVTVSS
heavy 2: B1 heavy (part 1 of 2)
light: not shown
B3: bsAb055 (bispecific antibody, not shown: a dimerising Fc or GST; small tags and cut ends)
heavy 1: B1 heavy (part 2 of 2)
heavy 2: B1 heavy (part 1 of 2)
light: not shown
B4: bsAb051 (bispecific antibody, not shown: small tags and cut ends; a dimerising Fc or GST)
heavy (part 1 of 2): B1 heavy (part 1 of 2)
heavy (part 2 of 2): B1 heavy (part 2 of 2)
heavy: B1 heavy (part 2 of 2)
light: not shown
B5: bsAb040 (bispecific antibody, not shown: small tags and cut ends)
heavy (part 1 of 2): B1 heavy (part 1 of 2)
heavy (part 2 of 2): GGGGSGGGGSGGGGSGGGGSEIVLTQSPGTLSLSPGERATLSCRASQRVSSSYLAWYQQKPGQAPRLLIYDASSRATGIPDRFSGSGSGTDFTLTISRLEPEDFAVYYCQQYGSLPWTFGQGTKVEIKGGGGSGGGGSGGGGSGGGGSEVQLVESGGGLVQPGGSLRLSCAASGFTFSRYWMSWVRQAPGKGLEWVANIKQDGSEKYYVDSVKGRFTISRDNAKNSLYLQMNSLRAEDTAVYYCAREGGWFGELAFDYWGQGTLVTVSS
heavy: B1 heavy (part 1 of 2)
light: not shown
B6: bsAb048 (bispecific antibody, not shown: small tags and cut ends)
heavy 1: EIVLTQSPGTLSLSPGERATLSCRASQRVSSSYLAWYQQKPGQAPRLLIYDASSRATGIPDRFSGSGSGTDFTLTISRLEPEDFAVYYCQQYGSLPWTFGQGTKVEIKGGGGSGGGGSGGGGSGGGGSEVQLVESGGGLVQPGGSLRLSCAASGFTFSRYWMSWVRQAPGKGLEWVANIKQDGSEKYYVDSVKGRFTISRDNAKNSLYLQMNSLRAEDTAVYYCAREGGWFGELAFDYWGQGTLVTVSSGGGGSGGGGSGGGGSGGGGSQVQLVQSGAEVKKPGASVKLSCKASGYIFTRYYMYWVKQRPGQGLEWIGEINPNNGGTKFNEKFKNRATLTVDKSISTAYMELSRLRSDDTAVYYCSREDDYDGTPFAMDYWGQGTLVTVSS
heavy 2: B1 heavy (part 1 of 2)
light: not shown
B7: bsAb005 (bispecific antibody)
heavy: QVQLVQSGAEVKKPGASVKLSCKASGYIFTRYYMYWVKQRPGQGLEWIGEINPNNGGTKFNEKFKNRATLTVDKSISTAYMELSRLRSDDTAVYYCSREDDYDGTPFAMDYWGQGTLVTVSSASTKGPSVFPLAPSSKSTSGGTAALGCLVKDYFPEPVTVSWNSGALTSGVHTFPAVLQSSGLYSLSSVVTVPSSSLGTQTYICNVNHKPSNTKVDKRVEPKSCDKTHTCPPCPAPEFEGGPSVFLFPPKPKDTLMISRTPEVTCVVVDVSHEDPEVKFNWYVDGVEVHNAKTKPREEQYNSTYRVVSVLTVLHQDWLNGKEYKCKVSNKALPASIEKTISKAKGQPREPQVYTLPPSREEMTKNQVSLTCLVKGFYPSDIAVEWESNGQPENNYKTTPPVLDSDGSFFLYSKLTVDKSRWQQGNVFSCSVMHEALHNHYTQKSLSLSPGGGGGSGGGGSGGGGSGGGGSEIVLTQSPATLSLSPGERATLSCRASKGVSTSGYSYLHWYQQKPGQAPRLLIYLASYLESGVPARFSGSGSGTDFTLTISSLEPEDFAVYYCQHSRDLPLTFGGGTKVEIKGGGGSGGGGSGGGGSGGGGSQVQLVQSGVEVKKPGASVKVSCKASGYTFTNYYMYWVRQAPGQGLEWMGGINPSNGGTNFNEKFKNRVTLTTDSSTTTAYMELKSLQFDDTAVYYCARRDYRFDMGFDYWGQGTTVTVSS
light: not shown

In the assay the target is BTN3A expressed at the cell surface (human), O00481. Kind of assay: cell-based or functional assay.
Chain of BTN3A expressed at the cell surface (human), O00481 (O00481 30-513): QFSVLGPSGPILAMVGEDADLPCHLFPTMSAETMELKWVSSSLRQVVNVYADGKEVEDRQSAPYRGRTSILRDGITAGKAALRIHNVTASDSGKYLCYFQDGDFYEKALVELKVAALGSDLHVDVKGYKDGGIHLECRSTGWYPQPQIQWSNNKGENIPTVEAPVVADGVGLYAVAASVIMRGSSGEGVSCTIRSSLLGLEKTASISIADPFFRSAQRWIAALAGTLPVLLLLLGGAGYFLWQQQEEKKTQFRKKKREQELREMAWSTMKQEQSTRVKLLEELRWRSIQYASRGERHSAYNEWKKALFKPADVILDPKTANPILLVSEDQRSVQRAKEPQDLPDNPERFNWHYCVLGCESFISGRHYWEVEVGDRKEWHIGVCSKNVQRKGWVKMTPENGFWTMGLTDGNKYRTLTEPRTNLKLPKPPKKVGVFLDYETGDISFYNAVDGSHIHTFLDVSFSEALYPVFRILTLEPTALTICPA
The molecule B1 showed a Jurkat-Vy9Vo2 TCR MOP activation at 0.5 nM (fold-change to medium) of 14.1 and a Jurkat-Vy9Vo2 TCR MOP activation at 5 nM (fold-change to medium) of 11.2.
Taken in the same sequence, the figures for B2 were 10.1 and 9.3.
Molecule B3 returned a Jurkat-Vy9Vo2 TCR MOP activation at 0.5 nM (fold-change to medium) of 2.9 and a Jurkat-Vy9Vo2 TCR MOP activation at 5 nM (fold-change to medium) of 11.8.
B4 displayed a Jurkat-Vy9Vo2 TCR MOP activation at 0.5 nM (fold-change to medium) of 1.5 and a Jurkat-Vy9Vo2 TCR MOP activation at 5 nM (fold-change to medium) of 2.3.
The molecule B5 yielded a Jurkat-Vy9Vo2 TCR MOP activation at 0.5 nM (fold-change to medium) of 10.4 and a Jurkat-Vy9Vo2 TCR MOP activation at 5 nM (fold-change to medium) of 8.8.
Molecule B6 showed a Jurkat-Vy9Vo2 TCR MOP activation at 0.5 nM (fold-change to medium) of 8.2 and a Jurkat-Vy9Vo2 TCR MOP activation at 5 nM (fold-change to medium) of 7.9.
Regarding B7, the Jurkat-Vy9Vo2 TCR MOP activation at 0.5 nM (fold-change to medium) was 6 and the Jurkat-Vy9Vo2 TCR MOP activation at 5 nM (fold-change to medium) came out at 4.2.
